Data set [1] addresses T1, CitGATA7 (Citrus, UniProt A0ACB8JKI3 1-185).
T1 sequence: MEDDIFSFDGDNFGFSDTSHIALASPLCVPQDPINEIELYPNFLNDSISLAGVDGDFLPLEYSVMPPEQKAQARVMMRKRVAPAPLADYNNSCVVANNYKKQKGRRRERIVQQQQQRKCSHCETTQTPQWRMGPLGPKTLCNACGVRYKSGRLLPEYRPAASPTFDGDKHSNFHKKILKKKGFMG
In words: EMSA; LightShift Chemiluminescent EMSA kit (Thermo), manufacturer's instructions; buffer, salt, pH and temperature not stated. The conditions noted are these: protein: recombinant; tags: His (pET-32a); label: 3'-biotin (both strands); blunt.

For data set [2], the target named is T1, CitGATA7. The data set can be described thus: EMSA; attenuated dose-dependently by unlabeled WT probe; LightShift Chemiluminescent EMSA kit (Thermo), manufacturer's instructions; buffer, salt, pH and temperature not stated. The conditions noted are these: protein: recombinant; tags: His (pET-32a); label: 3'-biotin (both strands); blunt. Background: Mobility shift assays separate free from complexed probe on a gel.

Substitutions are numbered along the chain they refer to.

B1: CitIDH1 promoter probe mutant (dsDNA)
DNA 1: CATTAAATTCCATTTTTTCTAATATG
DNA 2: CATATTAGAAAAAATGGAATTTAATG
Consider B1, for which the binding result in the data set with CitGATA7 [1] was “no binding”.

B2: CitGS1 promoter probe WT (dsDNA)
DNA 1: GCACACCATCTCGATCAGGTGGTAATTTTG
DNA 2: CAAAATTACCACCTGATCGAGATGGTGTGC
Regarding B2, the binding result with CitGATA7 [2] is “binds”.

B3: CitGS1 promoter probe mutant (dsDNA)
DNA 1: B2 DNA 1 with G13A, T15A, C16A
DNA 2: B2 DNA 2 with G15T, A16T, C18T
For the molecule B3, the binding result with CitGATA7 [1] is “no binding”.

B4: CitACO3 promoter probe WT (dsDNA)
DNA 1: TCCCATAAAAAAAGATCATAATAATAAAAG
DNA 2: CTTTTATTATTATGATCTTTTTTTATGGGA
For B4, the binding result with CitGATA7 [2] is “binds”.

B5: CitACO3 promoter probe mutant (dsDNA)
DNA 1: TCCCATAAAAAACCCCCCTAATAATAAAAG
DNA 2: CTTTTATTATTAGGGGGGTTTTTTATGGGA
Consider B5, for which the binding result in the data set with CitGATA7 [1] is “no binding”.

B6: CitIDH1 promoter probe WT (dsDNA)
DNA 1: CATTAAATTCCACATCATCTAATATG
DNA 2: CATATTAGATGATGTGGAATTTAATG
With B6, the binding result with CitGATA7 [2] is on record as “binds”.

The record behind these values is article PMC11786515, “CitGATA7 interact with histone acetyltransferase CitHAG28 to promote citric acid degradation by regulating the glutamine synthetase pathway in citrus”.
